Laboratory results taken from paper PMC6101577.

Target: T1, recombinant human SFPQ/PSF (human), P23246
T1 chain: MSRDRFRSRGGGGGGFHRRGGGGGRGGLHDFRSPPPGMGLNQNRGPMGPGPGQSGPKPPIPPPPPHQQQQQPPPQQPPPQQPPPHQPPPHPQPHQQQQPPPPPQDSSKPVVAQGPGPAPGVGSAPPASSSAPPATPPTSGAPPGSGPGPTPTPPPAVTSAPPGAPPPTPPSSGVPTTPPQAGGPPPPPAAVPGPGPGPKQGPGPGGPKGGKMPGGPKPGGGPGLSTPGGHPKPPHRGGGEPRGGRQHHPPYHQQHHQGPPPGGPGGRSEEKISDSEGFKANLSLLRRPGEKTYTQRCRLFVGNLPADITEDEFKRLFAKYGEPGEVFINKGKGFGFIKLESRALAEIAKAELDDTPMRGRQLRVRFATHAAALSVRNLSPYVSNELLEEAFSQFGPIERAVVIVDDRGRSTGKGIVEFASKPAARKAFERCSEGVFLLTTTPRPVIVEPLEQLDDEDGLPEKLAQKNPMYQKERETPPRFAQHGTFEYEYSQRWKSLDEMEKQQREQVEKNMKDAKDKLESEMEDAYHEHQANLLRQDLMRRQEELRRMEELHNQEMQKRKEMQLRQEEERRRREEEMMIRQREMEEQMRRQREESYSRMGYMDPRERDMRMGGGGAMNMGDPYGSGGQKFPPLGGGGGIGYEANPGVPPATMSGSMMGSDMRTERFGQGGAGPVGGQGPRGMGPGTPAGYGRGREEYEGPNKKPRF
Experiment: SEC
Conditions: remark: other sources report otherwise

stoichiometry N: 2
B1: recombinant human SFPQ/PSF, P23246 1-707 (natural protein)
chain: MSRDRFRSRGGGGGGFHRRGGGGGRGGLHDFRSPPPGMGLNQNRGPMGPGPGQSGPKPPIPPPPPHQQQQQPPPQQPPPQQPPPHQPPPHPQPHQQQQPPPPPQDSSKPVVAQGPGPAPGVGSAPPASSSAPPATPPTSGAPPGSGPGPTPTPPPAVTSAPPGAPPPTPPSSGVPTTPPQAGGPPPPPAAVPGPGPGPKQGPGPGGPKGGKMPGGPKPGGGPGLSTPGGHPKPPHRGGGEPRGGRQHHPPYHQQHHQGPPPGGPGGRSEEKISDSEGFKANLSLLRRPGEKTYTQRCRLFVGNLPADITEDEFKRLFAKYGEPGEVFINKGKGFGFIKLESRALAEIAKAELDDTPMRGRQLRVRFATHAAALSVRNLSPYVSNELLEEAFSQFGPIERAVVIVDDRGRSTGKGIVEFASKPAARKAFERCSEGVFLLTTTPRPVIVEPLEQLDDEDGLPEKLAQKNPMYQKERETPPRFAQHGTFEYEYSQRWKSLDEMEKQQREQVEKNMKDAKDKLESEMEDAYHEHQANLLRQDLMRRQEELRRMEELHNQEMQKRKEMQLRQEEERRRREEEMMIRQREMEEQMRRQREESYSRMGYMDPRERDMRMGGGGAMNMGDPYGSGGQKFPPLGGGGGIGYEANPGVPPATMSGSMMGSDMRTERFGQGGAGPVGGQGPRGMGPGTPAGYGRGREEYEGPNKKPRF
